Assay results from US20230322924A1 (Janssen / Centocor, published 2023).
Read-outs that look alike come from different tables or passages of the source.

T1: Rh-CD19 (UniProt P15391 20-291, limits assumed)
T1 construct: rh read as recombinant human
T1 sequence (looked up): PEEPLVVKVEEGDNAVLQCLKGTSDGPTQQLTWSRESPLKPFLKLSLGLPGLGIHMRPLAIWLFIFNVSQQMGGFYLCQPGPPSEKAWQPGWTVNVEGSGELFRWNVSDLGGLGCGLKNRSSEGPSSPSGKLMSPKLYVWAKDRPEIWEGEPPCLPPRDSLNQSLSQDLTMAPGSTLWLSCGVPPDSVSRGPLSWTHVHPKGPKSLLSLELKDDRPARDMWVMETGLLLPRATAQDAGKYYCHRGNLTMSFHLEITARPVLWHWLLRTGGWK


Assays:
Rh-CD19 = target: T1, Rh-CD19; assay: Biacore 8K SPR, antibody over immobilised protein
Experimental: (§1) Non-specific binding of the lead molecule to unrelated surfaces is determined by biosensor technology (Biacore 8K). Antibody is passed over SPR surfaces coated with unrelated proteins. […] Irrelevant surfaces include negatively charged protein (Soy Trypsin Inhibitor), positively charged protein (Lysozyme and β-defensin), hydrophobic (Rh-integrin a4b7), human IgG, sticky protein (Rh-CD19). Proper controls are used in this experiment. Lead is flown over two surfaces, one is a blank and the other has a molecule directly immobilized. The response unit (RU) level is determined by subtracting the blank RU from the test surface RU. […] A response unit ≥100 predicts high risks for non-specific binding to charged/hydrophobic/IgG surfaces which would create challenges during manufacturing and translate to poor PK properties.

Rh-integrin a4b7 = target: T2, Rh-integrin a4b7 (UniProt P13612 34-977; P26010 20-723, limits assumed); assay: Biacore 8K SPR, antibody over immobilised protein
T2 construct: rh read as recombinant human
Experimental: as §1

[1] = target: T3, human CD3 on human T cells (human, UniProt P07766 23-207); assay: Kd = IC50/(1+[T]/KdT) from competition with AF488 SP-34 on human pan T cells
T3 construct: Native TCR-CD3 complex on cells; also called primary human T cells; human pan T cells
T3 sequence (P07766 23-207 limits assumed): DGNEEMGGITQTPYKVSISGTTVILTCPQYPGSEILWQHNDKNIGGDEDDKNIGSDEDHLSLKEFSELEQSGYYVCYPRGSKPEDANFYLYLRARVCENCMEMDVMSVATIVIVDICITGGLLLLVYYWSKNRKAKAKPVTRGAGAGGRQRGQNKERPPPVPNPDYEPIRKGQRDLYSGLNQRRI
Experimental: (§2) The mixture was added to the T cells for 2 hours at 4° C. Cells were then washed to remove un-bound antibody, fixed for 15 minutes, washed, and re-suspended in FACS Staining buffer containing 1 mM EDTA.
(§3) The iQue Intellicyte Flow Cytometer was used to measure binding. Cells were gated for T-cell population, followed by cell singlets, followed by Live Cells (FL4). Geometric mean of staining (FL1) was determined for each well. The acquired mean fluorescence intensity values were plotted as a function of the log antibody molecule concentration (converted to nM) and analyzed using Prism software in a sigmoidal dose-response (variable slope) from which the EC50/IC50 values (in nM) are derived. The binding affinity (Kd) was derived using the following formula: Kd=IC50/(1+([T]/KdT)).

[2] = target: T3, human CD3 on human T cells; assay: competition with AF488 SP-34 tracer on human pan T cells, flow cytometry
Experimental: as §2, §3

[3] = target: T4, cynomolgus monkey PSMA on HEK cells (cynomolgus); assay: flow cytometry, mammalian Fab supernatant on cyno-PSMA HEK cells (PSMG5), anti-human kappa-RPE
T4 construct: whole, on cells; also called Cyno-PSMA HEK; PSMG5
Description: (§4) (Mammalian Fab Supernatant Titration Curves for Anti-PSMA Phage Panning Hits vs Cyno PSMA HEK). […] In FIG. 24D, Mammalian-expressed supernatants were normalized for Fab expression via octet, and titrated against either human LNCAP, PSMG5 (Cyno-PSMA HEK), or PSMG9 (chimp-PSMA HEK) cells using flow cytometry. Geometric mean fluorescence intensity (GeoMFI) was plotted vs. Fab concertation using GraphPad Prizm.
(§5) A cell-based binding assay was designed to assess the binding capabilities of individual Fab-his fusions from E. coli supernatants to PSMA-expressing cells. Individual Fab clones were isolated from the round 3 output of all panning experiments following pIX excision. Fab clones were tested for binding to chimp and cyno PSMA expressing HEK cells, as well as to human PSMA on LNCaP cells. Briefly, PSMA expressing cells were aliquoted into a V-bottom plate (CoStar 3357) at a density of 200,000 per well and incubated with (100 μl) supernatants expressing Fab fragments for 1 hour on ice. […] Plates were read on a BD FACS Array flow cytometer. FACS data was analyzed in FlowJo software by live gating the healthy population of cells using forward scatter and side scatter, and then analyzing the cells within this gate for PE staining. Mean fluorescence intensity (MFI) was calculated and exported into Microsoft Excel. […]

[4] = target: T5, chimpanzee PSMA on HEK cells (chimpanzee, UniProt H2Q3K5 1-750); assay: flow cytometry, mammalian Fab supernatant on chimp-PSMA HEK cells (PSMG9), anti-human kappa-RPE
T5 construct: also called chimp-PSMA HEK; PSMG9
T5 sequence (H2Q3K5 entry or part of it limits assumed): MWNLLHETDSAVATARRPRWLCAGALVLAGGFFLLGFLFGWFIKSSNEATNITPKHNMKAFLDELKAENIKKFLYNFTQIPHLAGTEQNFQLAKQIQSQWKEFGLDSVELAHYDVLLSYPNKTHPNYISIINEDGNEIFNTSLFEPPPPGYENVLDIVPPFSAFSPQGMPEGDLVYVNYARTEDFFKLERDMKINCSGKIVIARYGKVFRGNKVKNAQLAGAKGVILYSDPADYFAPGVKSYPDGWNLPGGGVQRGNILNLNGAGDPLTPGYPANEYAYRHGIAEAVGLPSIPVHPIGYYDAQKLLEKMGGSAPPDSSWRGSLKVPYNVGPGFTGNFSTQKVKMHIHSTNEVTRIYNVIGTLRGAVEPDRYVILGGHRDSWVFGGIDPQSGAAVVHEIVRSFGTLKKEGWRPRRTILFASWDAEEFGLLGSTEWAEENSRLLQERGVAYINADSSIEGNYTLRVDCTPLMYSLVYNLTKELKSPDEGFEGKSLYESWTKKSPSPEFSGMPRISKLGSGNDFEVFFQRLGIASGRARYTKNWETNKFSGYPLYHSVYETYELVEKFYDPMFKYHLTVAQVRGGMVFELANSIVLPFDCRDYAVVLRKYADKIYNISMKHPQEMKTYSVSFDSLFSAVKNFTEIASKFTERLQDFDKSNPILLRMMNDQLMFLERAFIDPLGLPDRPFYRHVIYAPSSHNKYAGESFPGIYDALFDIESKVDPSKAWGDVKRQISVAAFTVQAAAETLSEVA
Experimental: (§6) Individual Fab clones were isolated from the round 3 output of all panning experiments following pIX excision. Fab clones were tested for binding to chimp and cyno PSMA expressing HEK cells, as well as to human PSMA on LNCaP cells. Briefly, PSMA expressing cells were aliquoted into a V-bottom plate (CoStar 3357) at a density of 200,000 per well and incubated with (100 μl) supernatants expressing Fab fragments for 1 hour on ice. Cells were washed twice with PBS containing 2% FBS, and stained with a mouse anti-human kappa-RPE antibody (Life Technologies cat #MH10514) for 1 hour on ice. Cells were washed twice with PBS containing 2% FBS and resuspended in […] of the same wash buffer. Plates were read on a BD FACS Array flow cytometer. FACS data was analyzed in FlowJo software by live gating the healthy population of cells using forward scatter and side scatter, and then analyzing the cells within this gate for PE staining. Mean fluorescence intensity (MFI) was calculated and exported into Microsoft Excel. […] Fabs were sequenced and moved forward for cloning into mammalian expression vector for rescreening. True positives were selected from the binding of mammalian cell expressed Fab supernatants to PSMA-expressing cell lines.
(§7) FIGS. 22A, 22B, 22C and 22D show the titration curves for anti-PSMA panning hits vs. LNCaP cells. […]

[5] = target: T6, human PSMA on cells (LNCaP) (human, UniProt Q04609 1-750); assay: flow cytometry, mammalian Fab supernatant on LNCaP cells, anti-human kappa-RPE
T6 construct: whole, on cells; also called LNCaP cells
T6 sequence (Q04609 whole entry): as the sequence (H2Q3K5 entry or part of it limits assumed) above, with L155S, H281R, Y475H, N613S, T647S, L660V, D727E, S733Y counted along it
Experimental: as §6
FIGS. 22A, 22B, 22C and 22D show the titration curves for anti-PSMA panning hits vs. LNCaP cells. […] Binding profiles among hits were compared across cell lines expressing different species of PSMA.

[6] = target: T4, cynomolgus monkey PSMA on HEK cells; assay: flow cytometry, mammalian Fab supernatant on cyno-PSMA HEK cells (PSMG5), anti-human kappa-RPE; remark: listed apart in the source
Description: as §4, §5

[7] = target: T5, chimpanzee PSMA on HEK cells; assay: flow cytometry, mammalian Fab supernatant on chimp-PSMA HEK cells (PSMG9), anti-human kappa-RPE; remark: listed apart in the source
Experimental: as §6, §7

Kd [1]	IC50 [2]	EC50 (read off the curve) [3]	EC50 (read off the curve) [4]	EC50 (read off the curve) [5]	EC50 (read off the curve) [6]	EC50 (read off the curve) [7]	Binder	binding result (Rh-CD19)	binding result (Rh-integrin a4b7)
7.3 nM	29 nM						CD3B376 (antibody, human IgG4 S228P, lambda, F234A L235A, V domains shown, IgG4 PAA (S228P, F234A, L235A); LC is CD3L124 with C91V; also called CD3H219/CD3L150; bivalent CD3B376) VH: QVQLQQSGPRLVRPSQTLSLTCAISGDSVFNNNAAWSWIRQSPSRGLEWLGRTYYRSKWLYDYAVSVKSRITVNPDTSRNQFTLQLNSVTPEDTALYYCARGYSSSFDYWGQGTLVTVSS VL: QSALTQPASVSGSPGQSITISCTGTSSNIGTYKFVSWYQQHPDKAPKVLLYEVSKRPSGVSSRFSGSKSGNTASLTISGLQAEDQADYHCVSYAGSGTLLFGGGTKLTVLG	no binding (tested: response unit ≥100 predicts high risks)	no binding (tested: response unit ≥100 predicts high risks)
15 nM	60 nM						CD3B450 (antibody, human IgG4 S228P, lambda, F234A L235A, V domains shown, IgG4 PAA; also called CD3H231/CD3L197; bivalent CD3B450) VH: QVQLQQSGPGLVKPSQTLSLTCAISGDSVFNNNAAWSWIRQSPSRGLEWLGRTYYRSKWLYDYAVSVKSRITINPDTSKNQFSLQLNSVTPEDTAVYYCARGYSSSFDYWGQGTLVTVSS VL: QSALTQPASVSGSPGQSITISCTGTSSNIGTYKFVSWYQQHPGKAPKVMIYEVSKRPSGVSNRFSGSKSGNTASLTISGLQAEDEADYYCVSYAGSGTLLFGGGTKLTVLG		
		~0.2 µg/mL	~0.2 µg/mL	~0.3 µg/mL	~0.2 µg/mL	~0.2 µg/mL	PSMM52 (Fab, V domains shown, Mammalian Fab supernatant; also called PSMB51) VH: QVQLVQSGAEVKKPGSSVKVSCKASGGTFSSYAISWVRQAPGQGLEWMGWIIPYNGNANYAQKFQGRVTITADESTSTAYMELSSLRSEDTAVYYCARVNSAALVWERLDYWGQGTLVTVSS VL: DIQMTQSPSSLSASVGDRVTITCRASQSIDRWLNWYQQKPGKAPKLLIYAASSLQSGVPSRFSGSGSGTDFTLTISSLQPEDFATYYCQQSPRYPLTFGQGTKVEIK		
